Data taken from patent US20060246519A1, “MONOMERIC STREPTAVIDIN MUTEINS” (priority 2005, published 2006).

Columns and labels:
[1] = test system: Biotin-conjugated bovine serum albumin; assay: Kinetic analysis by surface plasmon resonance BIAcoreX biosensor; assay type: binding; settings: interaction with biotin
Method: FIG. 8: Kinetic parameters for the interaction between M4 streptavidin mutein and biotin as monitored by BIAcore biosensor. A. On-rate (ka) determination. ka is derived from association analysis. kd is the slope of the plot of In(Ro/Rt) versus (t−to) where Ro is the response at an arbitrary starting time to; Rt is the response at time t.
The kinetic parameters (both on- and off-rates for interaction with biotin) of streptavidin muteins were determined in real time using the surface plasmon resonance based BIAcoreX biosensor. Biotin-conjugated bovine serum albumin immobilized on CM5 sensor chip was used to study the reversibility of biotin binding (Qureshi, 2001).

[2] = Dynamic light scattering (hydrodynamic radius, estimated molecular mass); assay type: physicochemical; settings: for M (kDa) (Dynamic light scattering): calculated from measured RH using a protein calibration curve
Method: (§1) Molecular mass of purified streptavidin and its muteins was estimated by both gel filtration and dynamic light scattering studies. Gel filtration was performed on the Bio-Rad biologic workstation equipped with a Bio-Prep SE 100/17 column that had been calibrated with molecular mass protein markers (Bio-Rad). Molecular mass was also estimated from the hydrodynamic radius of the mutein obtained using a DynaPro MS dynamic light scattering instrument (Protein Solutions, USA) that had been calibrated with lysozyme. Protein samples (2-3 mg/ml in PBS) were passed through a 0.02 μm filter (Whatman Anodisc 13) immediately prior to measurement. The size distribution profile was analyzed using the manufacturer's Dynamics V6 software.

Solubility of mutein = assay type: physicochemical; settings: at a concentration of 2 mg/ml
[3] = Degree of monomerization of non-boiled samples in SDS-PAGE / Western blot; assay type: physicochemical
Method: FIG. 3: Western blot analysis of cell culture supernatants from B. subtilis strains producing streptavidin muteins carrying a single mutation. 15 μl of non-boiled sample of culture supernatant was loaded to each lane. Samples on the left set were collected from B. subtilis strains cultured in super-rich medium without additional supplement of biotin. Samples on the right set were collected from B. subtilis strains cultured in super-rich medium with additional supplementation of biotin (20 μM). The blot was probed with polyclonal antibodies against streptavidin and developed using 4-chloro-1-napthol (Bio-Rad) as the colour development agent. […] M, molecular weight markers; wt, wild type streptavidin.
FIG. 4: Analysis of culture supernatants from B. subtilis strains producing streptavidin muteins carrying different combinations of mutations. All these strains were cultivated in super-rich medium supplemented with biotin (20 μM). The 15 μl of non-boiled samples of culture supernatants were loaded. FIG. 4A. Coomassie blue stained SDS-polyacrylamide gel. […]
Streptavidin muteins carrying a single amino-acid change at the selected site may be produced in their soluble form by B. subtilis via secretion. […] Since biotin can strengthen subunit interaction, samples were analyzed in the presence or absence of biotin (Laitinen, 2001; Gonzalez, 1999). […]

[4] = Apparent molecular mass by gel filtration (Bio-Prep SE 100/17); assay type: physicochemical
Description: FIG. 6: Gel filtration profiles of streptavidin muteins. FIG. 6A. […] Bovine gamma-globulin (158 kDa), bovine serum albumin (66 kDa), ovalbumin (44 kDa), myoglobin (17 kDa) and vitamin B-12 (1.35 kDa) were used as molecular mass markers (closed circles) to calibrate the column. The logarithm of molecular mass was plotted versus Kav (Kav=(Ve−Vo)/(Vt−Vo); Ve, elution volume; Vo, void volume; Vt, bed volume). Positions of wild-type streptavidin (wt) and streptavidin muteins are represented by solid squares. FIG. 6B. Elution profile of M4 mutein (loaded at 2 mg/ml) on the gel filtration column.
as §1

[5] = Cross-linking reactions with sulfo-EGS; assay type: physicochemical; settings: 10-fold molar excess sulfo-EGS, 30 min, room temperature
Method: Cross-linking of streptavidin and its muteins was carried out using sulfo-EGS [ethylene glycolbis(sulfosuccinimidyl succinate)] (Pierce) as the cross-linker. A typical reaction mixture (20 μl) contained the purified mutein (0.2 5 mg/ml) and sulfo-EGS (10-fold molar excess over the protein) in PBS. After 30 min at room temperature, the reaction was quenched with Tris-HCl (30 mM, pH 7.5). Aliquots of the cross-linking reaction samples were boiled and examined by SDS-PAGE. Lysozyme (Sigma, 0.25 mg/ml) was included in the study to help establish the optimal reaction conditions.

proteinase K = assay: Proteinase K digestion of streptavidin and its muteins; assay type: biochemical; settings: independent of the presence or absence of biotin; 5 μM proteinase K, 15 min, 30° C.
Method: Purified streptavidin and its muteins (30 μM monomer) were treated with proteinase K (Invitrogen, 5 μM) for 15 min at 30° C. in 50 mM Tris-HCl containing 5 mM CaCl2, pH 8.0. The reaction was stopped by precipitation with trichloroacetic acid (Ellison, 1995). Boiled samples of precipitated proteins were resolved by reducing SDS-PAGE. The same analysis was performed with streptavidin samples treated with biotin (1 mM final concentration) prior to proteinase K digestion.

B1: M4: monomeric streptavidin quadruple mutant carrying T76R, V125R, V55T and L109T mutations (protein)
chain: MNIKKFAKQATVLTFTTALLAGGATQAFADPSKDSKAQVSAAEAGITGTWYNQLGSTFIVTAGADGALTGTYESAVGNAESRYTLTGRYDSAPATDGSGTALGWRVAWKNNYRNAHSATTWSGQYVGGAEARINTQWTLTSGTTEANAWKSTLRGHDTFTKVKPSAASIDAAKKAGVNNGNPLDAVQQ
modifications: Amino acid sequence for secretory production of streptavidin M4 in B. subtilis
notes: monomeric streptavidin quadruple mutant carrying T76R, V125R, V55T and L109T mutations
ka, on-rate [1]: 1.80 ± 0.04 × 10^4 M^−1s^−1
kd, off-rate [1]: 3.39 ± 0.02 × 10^−3 s^−1
RH (nm) (Dynamic light scattering) ([2]; +biotin): 2.20 ± 0.14 nm
M (kDa) (Dynamic light scattering) ([2]; +biotin): 21.5 kDa
RH (nm) (Dynamic light scattering) ([2]; no biotin): 2.08 ± 0.31 nm
M (kDa) (Dynamic light scattering) ([2]; no biotin): 18.1 kDa
solubility (Solubility of mutein): excellent solubility
Monomer (percentage of streptavidin in monomeric state) ([3]; No additional biotin): 100%
Monomer (percentage of streptavidin in monomeric state) ([3]; With additional biotin (20 μM)): 100%
M (kDa) (Gel filtration) ([4]; +biotin): 24.54 kDa
M (kDa) (Gel filtration) ([4]; no biotin): 21.87 kDa
Oligomeric state after cross-linking with sulfo-EGS (SDS-PAGE) [5]: migrated as monomers
Susceptibility to proteinase K digestion (proteinase K): completely digested
